Results as given in patent US20250043302A1, “MUTATED HYDROXYPHENYLPYRUVATE DIOXYGENASE POLYPEPTIDE, AND CODING GENE AND USE THEREOF” (BEIJING DABEINONG BIOTECHNOLOGY CO., LTD., priority 2021, published 2025).

B1: HPPDm-3-02: nucleotide sequence encoding Avena sativa HPPD with A106G+F372A+F383W; vector DBN11784 (nucleic acid)
DNA: ATGCCACCTACTCCAGCTACAGCTACTGGTGCTGCTGCTGCTGCCGTTACTCCTGAGCACGCTGCCAGGTCATTCCCCAGGGTGGTTCGCGTGAACCCCAGATCTGATAGGTTCCCAGTTCTGAGCTTCCACCATGTTGAGCTGTGGTGCGCTGATGCTGCTTCTGCTGCTGGCAGGTTCTCTTTCGCTCTTGGTGCTCCACTCGCTGCTAGATCTGATCTGTCTACAGGAAATAGCGCTCATGCCTCACTCCTGCTTCGCTCAGGTGCTTTGGCCTTCCTCTTCACCGCTCCATATGCTCCCCCACCTCAGGAGGGTGCTACTGCTGCTGCTACAGCCTCCATTCCAAGCTTCTCAGCTGATGCCGCTAGAACCTTCGCTGCTGCTCATGGACTTGCCGTGAGGTCTGTTGGTGTTCGCGTGGCTGATGCTGCTGAGGCTTTCAGAGTTTCCGTTGCCGGCGGAGCTAGGCCAGCTTTCGCTCCTGCTGATTTGGGACATGGTTTCGGCCTGGCTGAGGTTGAGCTTTACGGTGACGTGGTTCTCCGCTTCGTGTCTTACCCAGATGAGACTGACCTGCCTTTCCTTCCCGGCTTCGAGAGAGTTTCCTCTCCTGGTGCCGTGGATTACGGCCTGACAAGGTTCGACCACGTGGTTGGAAACGTTCCCGAGATGGCTCCAGTGATCGATTACATGAAGGGCTTCCTTGGATTCCATGAGTTCGCCGAGTTCACTGCTGAGGACGTGGGAACCACTGAGTCCGGTTTGAACTCTGTGGTTCTCGCCAACAATTCTGAGGCTGTTTTGCTCCCTCTGAATGAGCCTGTGCATGGAACCAAGAGGAGAAGCCAGATTCAAACTTACCTGGAGTACCACGGTGGCCCTGGAGTTCAGCATATCGCCCTTGCTTCTAATGATGTGTTGCGCACACTCAGAGAGATGCGCGCCAGAACCCCCATGGGAGGTTTCGAGTTCATGGCCCCACCACAGGCTAAGTACTACGAGGGCGTTAGAAGGATTGCTGGAGACGTGTTGAGCGAGGAGCAGATCAAGGAGTGCCAAGAGCTGGGTGTTCTTGTGGATAGGGATGACCAGGGCGTTCTGCTTCAAATTGCCACTAAGCCAGTGGGCGACCGCCCTACATTCTGGCTTGAGATGATTCAAAGAATCGGCTGCATGGAGAAGGATGAGGTTGGACAGGAGTACCAAAAGGGCGGATGCGGTGGCTTCGGAAAGGGTAACTTCAGCGAGTTGTTCAAGTCAATCGAGGACTACGAGAAGAGCCTCGAGGTGAAGCAGTCAGTGGTTGCCCAAAAGTCCTGA
modifications: HPPDm-3-02 Nucleotide Sequence
notes: vector DBN11784
B2: HPPDm-4-02: nucleotide sequence encoding Avena sativa HPPD with A107 deletion+K351N+F372A+F383W; vector DBN11785 (nucleic acid)
DNA: ATGCCACCTACTCCAGCTACAGCTACTGGTGCTGCTGCTGCTGCCGTTACTCCTGAGCACGCTGCCAGGTCATTCCCCAGGGTGGTTCGCGTGAACCCCAGATCTGATAGGTTCCCAGTTCTGAGCTTCCACCATGTTGAGCTGTGGTGCGCTGATGCTGCTTCTGCTGCTGGCAGGTTCTCTTTCGCTCTTGGTGCTCCACTCGCTGCTAGATCTGATCTGTCTACAGGAAATAGCGCTCATGCCTCACTCCTGCTTCGCTCAGGTGCTTTGGCCTTCCTCTTCACCGCTCCATATGCTCCCCCACCTCAGGAGGCTACTGCTGCTGCTACAGCCTCCATTCCAAGCTTCTCAGCTGATGCCGCTAGAACCTTCGCTGCTGCTCATGGACTTGCCGTGAGGTCTGTTGGTGTTCGCGTGGCTGATGCTGCTGAGGCTTTCAGAGTTTCCGTTGCCGGCGGAGCTAGGCCAGCTTTCGCTCCTGCTGATTTGGGACATGGTTTCGGCCTGGCTGAGGTTGAGCTTTACGGTGACGTGGTTCTCCGCTTCGTGTCTTACCCAGATGAGACTGACCTGCCTTTCCTTCCCGGCTTCGAGAGAGTTTCCTCTCCTGGTGCCGTGGATTACGGCCTGACAAGGTTCGACCACGTGGTTGGAAACGTTCCCGAGATGGCTCCAGTGATCGATTACATGAAGGGCTTCCTTGGATTCCATGAGTTCGCCGAGTTCACTGCTGAGGACGTGGGAACCACTGAGTCCGGTTTGAACTCTGTGGTTCTCGCCAACAATTCTGAGGCTGTTTTGCTCCCTCTGAATGAGCCTGTGCATGGAACCAAGAGGAGAAGCCAGATTCAAACTTACCTGGAGTACCACGGTGGCCCTGGAGTTCAGCATATCGCCCTTGCTTCTAATGATGTGTTGCGCACACTCAGAGAGATGCGCGCCAGAACCCCCATGGGAGGTTTCGAGTTCATGGCCCCACCACAGGCTAAGTACTACGAGGGCGTTAGAAGGATTGCTGGAGACGTGTTGAGCGAGGAGCAGATCAATGAGTGCCAAGAGCTGGGTGTTCTTGTGGATAGGGATGACCAGGGCGTTCTGCTTCAAATTGCCACTAAGCCAGTGGGCGACCGCCCTACATTCTGGCTTGAGATGATTCAAAGAATCGGCTGCATGGAGAAGGATGAGGTTGGACAGGAGTACCAAAAGGGCGGATGCGGTGGCTTCGGAAAGGGTAACTTCAGCGAGTTGTTCAAGTCAATCGAGGACTACGAGAAGAGCCTCGAGGTGAAGCAGTCAGTGGTTGCCCAAAAGTCCTGA
modifications: HPPDm-4-02 Nucleotide Sequence
notes: vector DBN11785

How the values were obtained:
Assay type in all cases: in vivo
[1] = test system: Arabidopsis thaliana T1 plants; assay: Topramezone tolerance of transgenic Arabidopsis thaliana T1 plants (spray, bleached leaf area grade, damage score); details: Table 10; for Classification and statistics of the grade of pesticide damage Grade 0: number of plants at grade 0; for Classification and statistics of the grade of pesticide damage Grade 1: number of plants at grade 1; for Classification and statistics of the grade of pesticide damage Grade 2: number of plants at grade 2; for Classification and statistics of the grade of pesticide damage Grade 3: number of plants at grade 3; for Scores: pesticide damage score
Method in brief: (§1)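 Damage graded 0–3 from the proportion of bleached leaf area 7 days after spraying. Plants were glufosinate-selected T1 lines, 18 days after sowing, plus vector and wild-type controls. Rates: mesotrione 52.5–420, isoxaflutole 35–280, topramezone 25–200 g ai/ha, with water (0×).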

[2] = test system: Arabidopsis thaliana T1 plants; assay: Isoxaflutole tolerance of transgenic Arabidopsis thaliana T1 plants (spray, bleached leaf area grade, damage score); details: Table 11; for Classification and statistics of the grade of pesticide damage Grade 0: number of plants at grade 0; for Classification and statistics of the grade of pesticide damage Grade 1: number of plants at grade 1; for Classification and statistics of the grade of pesticide damage Grade 2: number of plants at grade 2; for Classification and statistics of the grade of pesticide damage Grade 3: number of plants at grade 3; for Scores: pesticide damage score;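 as to Scores: Weighted damage index from 0 to 100 where higher means more damage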
Method in brief: as §1

[3] = test system: Arabidopsis thaliana T1 plants; assay: Mesotrione tolerance of transgenic Arabidopsis thaliana T1 plants (spray, bleached leaf area grade, damage score); design: Scores: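 damage score 0-100 computed as Σ(N×S)/(T×M)×100 over grades 0-3 with higher meaning more damage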; details: Table 12; for Classification and statistics of the grade of pesticide damage Grade 0: number of plants at grade 0; for Classification and statistics of the grade of pesticide damage Grade 1: number of plants at grade 1; for Classification and statistics of the grade of pesticide damage Grade 2: number of plants at grade 2; for Classification and statistics of the grade of pesticide damage Grade 3: number of plants at grade 3; for Scores: pesticide damage score
Method in brief: as §1

Molecule | Resistance evaluation ([1]; topramezone 100 g ai/ha (4×)) | Classification and statistics of the grade of pesticide damage Grade 0 ([1]; topramezone 100 g ai/ha (4×)) | Classification and statistics of the grade of pesticide damage Grade 1 ([1]; topramezone 100 g ai/ha (4×)) | Classification and statistics of the grade of pesticide damage Grade 2 ([1]; topramezone 100 g ai/ha (4×)) | Classification and statistics of the grade of pesticide damage Grade 3 ([1]; topramezone 100 g ai/ha (4×)) | Scores ([1]; topramezone 100 g ai/ha (4×)) | Resistance evaluation ([1]; topramezone 200 g ai/ha (8×)) | Classification and statistics of the grade of pesticide damage Grade 0 ([1]; topramezone 200 g ai/ha (8×)) | Classification and statistics of the grade of pesticide damage Grade 1 ([1]; topramezone 200 g ai/ha (8×)) | Classification and statistics of the grade of pesticide damage Grade 2 ([1]; topramezone 200 g ai/ha (8×)) | Classification and statistics of the grade of pesticide damage Grade 3 ([1]; topramezone 200 g ai/ha (8×)) | Scores ([1]; topramezone 200 g ai/ha (8×)) | Resistance evaluation ([2]; isoxaflutole 140 g ai/ha (2×)) | Classification and statistics of the grade of pesticide damage Grade 0 ([2]; isoxaflutole 140 g ai/ha (2×)) | Classification and statistics of the grade of pesticide damage Grade 1 ([2]; isoxaflutole 140 g ai/ha (2×)) | Classification and statistics of the grade of pesticide damage Grade 2 ([2]; isoxaflutole 140 g ai/ha (2×)) | Classification and statistics of the grade of pesticide damage Grade 3 ([2]; isoxaflutole 140 g ai/ha (2×)) | Scores ([2]; isoxaflutole 140 g ai/ha (2×)) | Resistance evaluation ([2]; isoxaflutole 280 g ai/ha (4×)) | Classification and statistics of the grade of pesticide damage Grade 0 ([2]; isoxaflutole 280 g ai/ha (4×)) | further results
B1 | Highly resistant | 16 | 0 | 0 | 0 | 0 | Highly resistant | 16 | 0 | 0 | 0 | 0 | Highly resistant | 16 | 0 | 0 | 0 | 0 | Highly resistant | 12 | Classification and statistics of the grade of pesticide damage Grade 1 ([2]; isoxaflutole 280 g ai/ha (4×)): 4; Classification and statistics of the grade of pesticide damage Grade 2 ([2]; isoxaflutole 280 g ai/ha (4×)): 0; Classification and statistics of the grade of pesticide damage Grade 3 ([2]; isoxaflutole 280 g ai/ha (4×)): 0; Scores ([2]; isoxaflutole 280 g ai/ha (4×)): 8; Resistance evaluation ([3]; mesotrione 210 g ai/ha (2×)): Highly resistant; Classification and statistics of the grade of pesticide damage Grade 0 ([3]; mesotrione 210 g ai/ha (2×)): 16; Classification and statistics of the grade of pesticide damage Grade 1 ([3]; mesotrione 210 g ai/ha (2×)): 0; Classification and statistics of the grade of pesticide damage Grade 2 ([3]; mesotrione 210 g ai/ha (2×)): 0; Classification and statistics of the grade of pesticide damage Grade 3 ([3]; mesotrione 210 g ai/ha (2×)): 0; Scores ([3]; mesotrione 210 g ai/ha (2×)): 0; Resistance evaluation ([3]; mesotrione 420 g ai/ha (4×)): Highly resistant; Classification and statistics of the grade of pesticide damage Grade 0 ([3]; mesotrione 420 g ai/ha (4×)): 14; Classification and statistics of the grade of pesticide damage Grade 1 ([3]; mesotrione 420 g ai/ha (4×)): 2; Classification and statistics of the grade of pesticide damage Grade 2 ([3]; mesotrione 420 g ai/ha (4×)): 0; Classification and statistics of the grade of pesticide damage Grade 3 ([3]; mesotrione 420 g ai/ha (4×)): 0; Scores ([3]; mesotrione 420 g ai/ha (4×)): 4
B2 | Highly resistant | 16 | 0 | 0 | 0 | 0 | Highly resistant | 16 | 0 | 0 | 0 | 0 | Highly resistant | 16 | 0 | 0 | 0 | 0 | Highly resistant | 13 | Classification and statistics of the grade of pesticide damage Grade 1 ([2]; isoxaflutole 280 g ai/ha (4×)): 3; Classification and statistics of the grade of pesticide damage Grade 2 ([2]; isoxaflutole 280 g ai/ha (4×)): 0; Classification and statistics of the grade of pesticide damage Grade 3 ([2]; isoxaflutole 280 g ai/ha (4×)): 0; Scores ([2]; isoxaflutole 280 g ai/ha (4×)): 6; Resistance evaluation ([3]; mesotrione 210 g ai/ha (2×)): Highly resistant; Classification and statistics of the grade of pesticide damage Grade 0 ([3]; mesotrione 210 g ai/ha (2×)): 16; Classification and statistics of the grade of pesticide damage Grade 1 ([3]; mesotrione 210 g ai/ha (2×)): 0; Classification and statistics of the grade of pesticide damage Grade 2 ([3]; mesotrione 210 g ai/ha (2×)): 0; Classification and statistics of the grade of pesticide damage Grade 3 ([3]; mesotrione 210 g ai/ha (2×)): 0; Scores ([3]; mesotrione 210 g ai/ha (2×)): 0; Resistance evaluation ([3]; mesotrione 420 g ai/ha (4×)): Highly resistant; Classification and statistics of the grade of pesticide damage Grade 0 ([3]; mesotrione 420 g ai/ha (4×)): 15; Classification and statistics of the grade of pesticide damage Grade 1 ([3]; mesotrione 420 g ai/ha (4×)): 1; Classification and statistics of the grade of pesticide damage Grade 2 ([3]; mesotrione 420 g ai/ha (4×)): 0; Classification and statistics of the grade of pesticide damage Grade 3 ([3]; mesotrione 420 g ai/ha (4×)): 0; Scores ([3]; mesotrione 420 g ai/ha (4×)): 2
